Measured values taken from patent publication US20210079056A1 (Bayer, published 2021).
Where “and” joins values, the source holds several entries; their conditions need not be identical. Equal entries are not always repeated.

biological target: T1, human NPRA (human, UniProt P16066 33-1061); assay: cell-based or functional assay
T1 sequence (looked up): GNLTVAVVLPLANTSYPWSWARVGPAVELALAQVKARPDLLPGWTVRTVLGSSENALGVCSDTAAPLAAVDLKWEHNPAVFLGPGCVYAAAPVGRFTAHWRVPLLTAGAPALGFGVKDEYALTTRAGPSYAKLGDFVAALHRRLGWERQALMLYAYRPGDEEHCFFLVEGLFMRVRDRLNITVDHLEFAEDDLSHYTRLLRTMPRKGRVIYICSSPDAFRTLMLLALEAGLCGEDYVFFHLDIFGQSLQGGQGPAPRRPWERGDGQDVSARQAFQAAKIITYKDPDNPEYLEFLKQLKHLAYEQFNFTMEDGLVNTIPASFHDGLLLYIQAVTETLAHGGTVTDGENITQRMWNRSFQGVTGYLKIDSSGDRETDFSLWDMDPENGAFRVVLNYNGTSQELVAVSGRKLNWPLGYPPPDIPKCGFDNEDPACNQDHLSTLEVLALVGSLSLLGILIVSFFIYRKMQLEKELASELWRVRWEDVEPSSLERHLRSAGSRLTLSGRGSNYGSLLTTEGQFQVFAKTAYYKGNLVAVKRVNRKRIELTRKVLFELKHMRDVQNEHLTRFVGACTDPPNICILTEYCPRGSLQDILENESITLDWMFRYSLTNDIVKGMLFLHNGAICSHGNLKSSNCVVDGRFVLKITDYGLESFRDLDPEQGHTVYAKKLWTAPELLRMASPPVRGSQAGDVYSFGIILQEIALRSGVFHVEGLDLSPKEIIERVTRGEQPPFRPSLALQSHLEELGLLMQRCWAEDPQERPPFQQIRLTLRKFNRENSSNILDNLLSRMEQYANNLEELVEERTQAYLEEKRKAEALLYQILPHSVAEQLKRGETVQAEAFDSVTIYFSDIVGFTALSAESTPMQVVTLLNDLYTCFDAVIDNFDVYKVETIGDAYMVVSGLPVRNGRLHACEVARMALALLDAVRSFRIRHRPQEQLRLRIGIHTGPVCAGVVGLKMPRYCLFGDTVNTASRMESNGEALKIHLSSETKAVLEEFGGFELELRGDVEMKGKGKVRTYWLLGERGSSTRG

Binder | average rel logEC50 | rel. logEC50* pcs | rel. logEC50 pcs 5 | rel. logEC50 pcs 6 | rel. logEC50 pcs 7 | rel. logEC50 pcs 1 | rel. logEC50 pcs 2 | rel. logEC50 pcs 4 | rel. logEC50 pcs 3 | rel. logEC50 pcs 9
TPP-13061 (antibody, human IgG1, lambda) heavy: not shown light: QSVLTQPPSVSGAPGQRVTISCTGSSSNIGAGYDVHWYQQLPGTAPKLLIYGNSNRPSGVPDRFSGSKSGTSASLAITGLQAEDEADYYCQSYDSSLSGVVFGGGTKLTVLGQPKAAPSVTLFPPSSEELQANKATLVCLISDFYPGAVTVAWKADSSPVKAGVETTTPSKQSNNKYAASSYLSLTPEQWKSHRSYSCQVTHEGSTVEKTVAPTECS | -0.7 | -0.6 and -0.8 | – | – | – | – | – | – | – | –
TPP-10765 (antibody, human IgG1, lambda) heavy: not shown light: QSVLTQPPSVSGAPGQRVTISCTGSSSNIGAGYDVHWYQQLPGTAPKLLIYGNSNRPSGVPDRFSGSKSGTSASLAITGLQAEDEADYYCQSYDSSLSGVVFGGGTKLTVLGQPKAAPSVTLFPPSSEELQANKATLVCLISDFYPGAVTVAWKADSSPVKAGVETTTPSKQSNNKYAASSYLSLTPEQWKSHRSYSCQVTHEGSTVEKTVAPTECS | -0.4 | – | -0.9 | -0.4 | 0.2 | – | – | – | – | –
TPP-10847 (antibody, human IgG1, lambda) heavy: not shown light: QSVLTQPPSVSGAPGQRVTISCTGSSSNIGAGYDVHWYQQLPGTAPKLLIYGNSNRPSGVPDRFSGSKSGTSASLAITGLQAEDEADYYCQSYDSSLSGVVFGGGTKLTVLGQPKAAPSVTLFPPSSEELQANKATLVCLISDFYPGAVTVAWKADSSPVKAGVETTTPSKQSNNKYAASSYLSLTPEQWKSHRSYSCQVTHEGSTVEKTVAPTECS | -0.5 | – | 0 | -0.9 | – | – | – | – | – | –
TPP-10845 (antibody, human IgG1, lambda) heavy: not shown light: QSVLTQPPSVSGAPGQRVTISCTGSSSNIGAGYDVHWYQQLPGTAPKLLIYGNSNRPSGVPDRFSGSKSGTSASLAITGLQAEDEADYYCQSYDSSLSGVVFGGGTKLTVLGQPKAAPSVTLFPPSSEELQANKATLVCLISDFYPGAVTVAWKADSSPVKAGVETTTPSKQSNNKYAASSYLSLTPEQWKSHRSYSCQVTHEGSTVEKTVAPTECS | -0.6 | – | -0.4 | -0.8 | – | – | – | – | – | –
TPP-10282 (antibody, human IgG1, lambda) heavy: not shown light: QSVLTQPPSVSGAPGQRVTISCTGSSSNIGAGYDVHWYQQLPGTAPKLLIYGNSNRPSGVPDRFSGSKSGTSASLAITGLQAEDEADYYCQSYDSSLSGVVFGGGTKLTVLGQPKAAPSVTLFPPSSEELQANKATLVCLISDFYPGAVTVAWKADSSPVKAGVETTTPSKQSNNKYAASSYLSLTPEQWKSHRSYSCQVTHEGSTVEKTVAPTECS | 0.1 | – | 0.2 | – | – | 0.3 | -0.2 | 0.1 | – | –
TPP-10283 (antibody, human IgG1, lambda) heavy: not shown light: QSVLTQPPSVSGAPGQRVTISCTGSSSNIGAGYDVHWYQQLPGTAPKLLIYGNSNRPSGVPDRFSGSKSGTSASLAITGLQAEDEADYYCQSYDSSLSGVVFGGGTKLTVLGQPKAAPSVTLFPPSSEELQANKATLVCLISDFYPGAVTVAWKADSSPVKAGVETTTPSKQSNNKYAASSYLSLTPEQWKSHRSYSCQVTHEGSTVEKTVAPTECS | – | – | -0.8 | – | – | – | – | – | – | –
TPP-10274 (antibody) heavy: not shown light: QSVLTQPPSVSGAPGQRVTISCTGSSSNIGAGYDVHWYQQLPGTAPKLLIYGNSNRPSGVPDRFSGSKSGTSASLAITGLQAEDEADYYCQSYDSSLSGVVFGGGTKLTVLGQPKAAPSVTLFPPSSEELQANKATLVCLISDFYPGAVTVAWKADSSPVKAGVETTTPSKQSNNKYAASSYLSLTPEQWKSHRSYSCQVTHEGSTVEKTVAPTECS | -0.1 | – | – | – | 0 | – | -0.3 | – | -0.2 | –
TPP-13230 (antibody) heavy: not shown light: QSVLTQPPSVSGAPGQRVTISCTGSSSNIGAGYDVHWYQQLPGTAPKLLIYGNSNRPSGVPDRFSGSKSGTSASLAITGLQAEDEADYYCQSYDSSLSGVVFGGGTKLTVLGQPKAAPSVTLFPPSSEELQANKATLVCLISDFYPGAVTVAWKADSSPVKAGVETTTPSKQSNNKYAASSYLSLTPEQWKSHRSYSCQVTHEGSTVEKTVAPTECS | – | – | – | – | – | – | – | – | – | -0.3
TPP-10290 (antibody) heavy: not shown light: QSVLTQPPSVSGAPGQRVTISCTGSSSNIGAGYDVHWYQQLPGTAPKLLIYGNSNRPSGVPDRFSGSKSGTSASLAITGLQAEDEADYYCQSYDSSLSGVVFGGGTKLTVLGQPKAAPSVTLFPPSSEELQANKATLVCLISDFYPGAVTVAWKADSSPVKAGVETTTPSKQSNNKYAASSYLSLTPEQWKSHRSYSCQVTHEGSTVEKTVAPTECS | -0.5 | – | – | – | – | -0.8 | -0.1 | – | – | –
TPP-10361 (antibody, human IgG1, lambda) heavy: not shown light: QSVLTQPPSVSGAPGQRVTISCTGSSSNIGAGYDVHWYQQLPGTAPKLLIYGSGSGSGSGSGSPDGGSGGSLRRSSCFGGRMDRIGAQSGLGCNSFRYGSYGSGGSGSGSGNRPSGVPDRFSGSKSGTSASLAITGLQAEDEADYYCQSYDSSLSGVVFGGGTKLTVLGQPKAAPSVTLFPPSSEELQANKATLVCLISDFYPGAVTVAWKADSSPVKAGVETTTPSKQSNNKYAASSYLSLTPEQWKSHRSYSCQVTHEGSTVEKTVAPTECS | – | – | -0.1 | – | – | – | – | – | – | –
TPP-10355 (antibody, human IgG1, lambda) heavy: not shown light: QSVLTQPPSVSGAPGQRVTISCTGSSSNIGAGYDVHWYQQLPGTAPKLLIYGNSNRPSGVPDRFSGSKSGTSASLAITGLQAEDEADYYCAAWNPNPNPNPNPNGGSGGSLRRSSCFGGRMDRIGAQSGLGCNSFRYGSNPNPNPNPNPNVFGSGTKVTVLGQPKAAPSVTLFPPSSEELQANKATLVCLISDFYPGAVTVAWKADSSPVKAGVETTTPSKQSNNKYAASSYLSLTPEQWKSHRSYSCQVTHEGSTVEKTVAPTECS | -0.2 | – | – | – | – | – | -0.6 | -0.3 | 0.2 | –
TPP-13054 (antibody, human IgG1, lambda) heavy: not shown light: QSVLTQPPSVSGAPGQRVTISCTGSSSNIGAGYDVHWYQQLPGTAPKLLIYGNSNRPSGVPDRFSGSKSGTSASLAITGLQAEDEADYYCQSYDSSLSGVVFGGGTKLTVLGQPKAAPSVTLFPPSSEELQANKATLVCLISDFYPGAVTVAWKADSSPVKAGVETTTPSKQSNNKYAASSYLSLTPEQWKSHRSYSCQVTHEGSTVEKTVAPTECS | -0.8 | -0.7 and -0.8 | – | – | – | – | – | – | – | –
TPP-10294 (antibody, human IgG1, lambda) heavy: not shown light: QSVLTQPPSVSGAPGQRVTISCTGSSSNIGAGYDVHWYQQLPGTAPKLLIYGNSNRPSGVPDRFSGSKSGTSASLAITGLQAEDEADYYCQSYDSSLSGVVFGGGTKLTVLGQPKAAPSVTLFPPSSEELQANKATLVCLISDFYPGAVTVAWKADSSPVKAGVETTTPSKQSNNKYAASSYLSLTPEQWKSHRSYSCQVTHEGSTVEKTVAPTECS | -0.3 | -0.5 and -0.6 and -0.4 | – | – | 0 | – | – | -0.2 | – | –
